{
  "source": "the RNAGym collection of RNA variant scans (doi:10.7554/elife.80360)",
  "parents": {"B1": {"name": "HDV Ribozyme (parent)", "chain": "GGCCGGCAUGGUCCCAGCCUCCUCGCUGGCGCCGGCUGGGCAACAUUCCGAGGGGACCGUCCCCUCGGUAAUGGCGAAUGGGACCCA"}},
  "data": [
    {"variants_of": "B1", "assay": "self-cleavage, relative activity (ratio to wild type); higher = more cleavage; co-transcriptional", "values": [
      {"variant": "U47C U60G", "self-cleavage": 0.935},
      {"variant": "U47G U72A", "self-cleavage": 0.831},
      {"variant": "U47G U72C", "self-cleavage": 0.554},
      {"variant": "U46G A77G", "self-cleavage": 0.415},
      {"variant": "U46G A77U", "self-cleavage": 0.0831},
      {"variant": "U47G A83G", "self-cleavage": 0.8},
      {"variant": "U47G A83U", "self-cleavage": 0.525},
      {"variant": "U47G G81A", "self-cleavage": 0.237},
      {"variant": "U47G G81U", "self-cleavage": 0.214},
      {"variant": "U47G C49A", "self-cleavage": 1.09},
      {"variant": "U46G G76A", "self-cleavage": 0.911},
      {"variant": "U46G G76C", "self-cleavage": 0.95},
      {"variant": "U47A A78C", "self-cleavage": 0.147},
      {"variant": "U46C C49G", "self-cleavage": 0.554},
      {"variant": "U46C C49U", "self-cleavage": 0.73},
      {"variant": "U46C A70C", "self-cleavage": 0.795},
      {"variant": "U46C A70U", "self-cleavage": 0.957},
      {"variant": "U46G C61G", "self-cleavage": 0.649},
      {"variant": "U46G C61U", "self-cleavage": 0.332},
      {"variant": "U46G G59U", "self-cleavage": 0.902},
      {"variant": "U46C G53A", "self-cleavage": 0.796},
      {"variant": "U46C G53C", "self-cleavage": 0.739},
      {"variant": "U47C C64U", "self-cleavage": 0.692},
      {"variant": "U47C U69A", "self-cleavage": 0.762},
      {"variant": "U47C U69G", "self-cleavage": 1.02},
      {"variant": "U46C C86A", "self-cleavage": 0.849},
      {"variant": "U47G G74A", "self-cleavage": 0.435},
      {"variant": "U47G G74C", "self-cleavage": 0.222},
      {"variant": "U47A A51C", "self-cleavage": 1.13},
      {"variant": "U47A A51U", "self-cleavage": 1.03},
      {"variant": "U47A A51G", "self-cleavage": 0.902},
      {"variant": "U47C G54A", "self-cleavage": 1.04},
      {"variant": "U47C G54C", "self-cleavage": 0.554},
      {"variant": "U47G C61A", "self-cleavage": 1.2},
      {"variant": "U47G A77U", "self-cleavage": 0.665},
      {"variant": "U46C G59A", "self-cleavage": 0.776},
      {"variant": "U46C G59U", "self-cleavage": 0.962},
      {"variant": "U46A G81A", "self-cleavage": 0.271},
      {"variant": "U47A C66G", "self-cleavage": 0.982},
      {"variant": "U47A C66A", "self-cleavage": 0.847},
      {"variant": "U47A G73C", "self-cleavage": 0.665},
      {"variant": "U47A G73A", "self-cleavage": 0.447},
      {"variant": "U47A G73U", "self-cleavage": 0.142},
      {"variant": "U47C G52A", "self-cleavage": 0.853},
      {"variant": "U47C G52C", "self-cleavage": 0.917},
      {"variant": "U47G A70G", "self-cleavage": 1.01},
      {"variant": "U46C C61G", "self-cleavage": 0.734},
      {"variant": "U46C C61U", "self-cleavage": 0.796},
      {"variant": "U47G U79A", "self-cleavage": 0.95},
      {"variant": "U47G U79G", "self-cleavage": 0.415},
      {"variant": "U46A C84U", "self-cleavage": 0.397},
      {"variant": "U46A C84A", "self-cleavage": 0.629},
      {"variant": "U47C C58U", "self-cleavage": 0.752},
      {"variant": "U47C C58A", "self-cleavage": 0.779},
      {"variant": "U47C C58G", "self-cleavage": 0.807},
      {"variant": "U47A C84A", "self-cleavage": 0.808},
      {"variant": "U47C A70G", "self-cleavage": 1.08},
      {"variant": "U47C A70U", "self-cleavage": 0.864},
      {"variant": "U46G G53C", "self-cleavage": 0.465},
      {"variant": "U47G C84U", "self-cleavage": 0.346},
      {"variant": "U47A G54U", "self-cleavage": 0.91},
      {"variant": "U46C A83U", "self-cleavage": 0.554},
      {"variant": "U46C G54U", "self-cleavage": 0.786},
      {"variant": "U46C G54C", "self-cleavage": 1.04},
      {"variant": "U47A G55A", "self-cleavage": 0.927},
      {"variant": "U47A G55U", "self-cleavage": 1.01},
      {"variant": "U47G C66U", "self-cleavage": 1.23},
      {"variant": "U47G C66G", "self-cleavage": 0.831},
      {"variant": "U47C C62U", "self-cleavage": 1.16},
      {"variant": "U47C C62G", "self-cleavage": 0.415},
      {"variant": "U47C C62A", "self-cleavage": 1.06},
      {"variant": "U46G U79A", "self-cleavage": 0.356},
      {"variant": "U47A C85U", "self-cleavage": 1.03},
      {"variant": "U47G G80U", "self-cleavage": 0.163},
      {"variant": "U47G G80C", "self-cleavage": 0.192},
      {"variant": "U47G G80A", "self-cleavage": 0.242},
      {"variant": "U47C C61G", "self-cleavage": 0.65},
      {"variant": "U47C C61A", "self-cleavage": 0.872},
      {"variant": "U46G G74A", "self-cleavage": 0.365},
      {"variant": "U47G A78C", "self-cleavage": 0.185},
      {"variant": "U47G A78U", "self-cleavage": 0.196},
      {"variant": "U47A G76C", "self-cleavage": 0.812},
      {"variant": "U46C C57U", "self-cleavage": 0.705},
      {"variant": "U46A G50C", "self-cleavage": 0.597},
      {"variant": "U46A G50U", "self-cleavage": 0.73},
      {"variant": "U46C G82A", "self-cleavage": 0.224},
      {"variant": "U46C G82C", "self-cleavage": 0.243},
      {"variant": "U47A U69C", "self-cleavage": 0.764},
      {"variant": "U47C", "self-cleavage": 0.906},
      {"variant": "U47A", "self-cleavage": 0.958},
      {"variant": "U47G", "self-cleavage": 1.09},
      {"variant": "U47G U69C", "self-cleavage": 0.727},
      {"variant": "U46G G55C", "self-cleavage": 0.98},
      {"variant": "U46G G55A", "self-cleavage": 0.649},
      {"variant": "U47A G52U", "self-cleavage": 0.845},
      {"variant": "U47A G52A", "self-cleavage": 0.975},
      {"variant": "U47C C86A", "self-cleavage": 0.806},
      {"variant": "U47G G50C", "self-cleavage": 0.831},
      {"variant": "U47G G50A", "self-cleavage": 0.957},
      {"variant": "U47A U60G", "self-cleavage": 1.02},
      {"variant": "U47A G67U", "self-cleavage": 1.14},
      {"variant": "U47A G67A", "self-cleavage": 0.897},
      {"variant": "U46C A87C", "self-cleavage": 0.91},
      {"variant": "U46C A87U", "self-cleavage": 0.689},
      {"variant": "U47G G59C", "self-cleavage": 1.16},
      {"variant": "U47G G67A", "self-cleavage": 0.831},
      {"variant": "U47G G67U", "self-cleavage": 0.929},
      {"variant": "U47G G67C", "self-cleavage": 0.554},
      {"variant": "U47C A78C", "self-cleavage": 0.0898},
      {"variant": "U47C A78G", "self-cleavage": 0.807},
      {"variant": "U47A C48G", "self-cleavage": 0.598},
      {"variant": "U47C C49U", "self-cleavage": 0.864},
      {"variant": "U47C C49G", "self-cleavage": 0.978},
      {"variant": "U47C C66U", "self-cleavage": 0.725},
      {"variant": "U46C C64U", "self-cleavage": 0.725},
      {"variant": "U46C C64G", "self-cleavage": 0.875},
      {"variant": "U46G U47C", "self-cleavage": 0.623},
      {"variant": "U46G U47A", "self-cleavage": 0.8},
      {"variant": "U47A A87C", "self-cleavage": 0.95},
      {"variant": "U47A A87G", "self-cleavage": 0.96},
      {"variant": "U47A A87U", "self-cleavage": 1.03},
      {"variant": "U47C A87U", "self-cleavage": 0.746},
      {"variant": "U47C A87G", "self-cleavage": 0.876},
      {"variant": "U47C A87C", "self-cleavage": 0.95},
      {"variant": "U46C A78U", "self-cleavage": 0.302},
      {"variant": "U47C C85A", "self-cleavage": 0.587},
      {"variant": "U46C G74A", "self-cleavage": 0.48},
      {"variant": "U46C G74U", "self-cleavage": 0.554},
      {"variant": "U47G C64A", "self-cleavage": 0.875},
      {"variant": "U47C G74A", "self-cleavage": 0.233},
      {"variant": "U46C A56U", "self-cleavage": 1.09},
      {"variant": "U46A G68A", "self-cleavage": 0.65},
      {"variant": "U46A G68U", "self-cleavage": 0.657},
      {"variant": "U47G C48U", "self-cleavage": 1.02},
      {"variant": "U47G C48A", "self-cleavage": 0.798},
      {"variant": "U46G C63A", "self-cleavage": 0.415},
      {"variant": "U46G C63G", "self-cleavage": 0.293},
      {"variant": "U47C G73A", "self-cleavage": 0.464},
      {"variant": "U47C G73U", "self-cleavage": 0.225},
      {"variant": "U47C G73C", "self-cleavage": 0.374},
      {"variant": "U47C G81U", "self-cleavage": 0.443},
      {"variant": "U47C G81A", "self-cleavage": 0.332},
      {"variant": "U46G A87G", "self-cleavage": 0.724},
      {"variant": "U46G C64A", "self-cleavage": 0.0831},
      {"variant": "U46G C64U", "self-cleavage": 0.776},
      {"variant": "U46G C64G", "self-cleavage": 0.525},
      {"variant": "U46C G67U", "self-cleavage": 0.831},
      {"variant": "U46C G67C", "self-cleavage": 0.469},
      {"variant": "U46C G81C", "self-cleavage": 0.302},
      {"variant": "U46A U60A", "self-cleavage": 0.751},
      {"variant": "U46A U65C", "self-cleavage": 0.65},
      {"variant": "U46A U65G", "self-cleavage": 0.675},
      {"variant": "U46A U65A", "self-cleavage": 0.914},
      {"variant": "U47C G80C", "self-cleavage": 0.138},
      {"variant": "U47C G80A", "self-cleavage": 0.215},
      {"variant": "U47C A56C", "self-cleavage": 0.831},
      {"variant": "U47C A56U", "self-cleavage": 0.942},
      {"variant": "U46G C48A", "self-cleavage": 0.903},
      {"variant": "U46A G59U", "self-cleavage": 0.674},
      {"variant": "U46A G59C", "self-cleavage": 0.57},
      {"variant": "U46C U79G", "self-cleavage": 0.554},
      {"variant": "U46C U79C", "self-cleavage": 0.432},
      {"variant": "U47A C61G", "self-cleavage": 0.639},
      {"variant": "U46C C75G", "self-cleavage": 0.469},
      {"variant": "U47C G55C", "self-cleavage": 0.862},
      {"variant": "U47C G55A", "self-cleavage": 0.923},
      {"variant": "U46G", "self-cleavage": 0.793}
    ]}
  ]
}
